Experiment [1] addresses HLA-A*02:01. In words: IEDB peptide-MHC binding, purified MHC/competitive/radioactivity; filed as Kd, often an IC50 or EC50 that approximates it; ≥ and ≤ were set here for values at or beyond the usual limits of such assays. The conditions noted are these: source organism: Trypanosoma cruzi.
For experiment [2], the target named is HLA-A*02:01. In words: IEDB peptide-MHC binding, purified MHC/competitive/radioactivity; ≥ and ≤ were set here for values at or beyond the usual limits of such assays. As to conditions: source organism: Trypanosoma cruzi.

These results are taken from the Immune Epitope Database (IEDB).

Regarding AACIVGCENV, the Kd (commonly the concentration at which binding is half-saturated) with HLA-A*02:01 [1] was at least 28.2 µM. As to AANPHATFGV, the IC50 (in general, the concentration at which inhibition is half-maximal) with HLA-A*02:01 [2] was 2.95 µM. The same measure, in the same setting: the value for AASTLLYATV was 2.98 µM. As to AIVFDHYDV, the Kd in the experiment with HLA-A*02:01 [1] was at least 43.4 µM. Same read-out and setting: the value for AIVTCGAETL was at least 28.2 µM; that for ALKNNGKVV was at least 43.4 µM. Turning to ALSLAAVLV, in the experiment with HLA-A*02:01 [2], the IC50 stood at 0.112 µM. Still for that read-out and setting: for ALSLAAVLVV the value was 0.324 µM; for AMALIGDSTV, 0.148 µM. Same read-out and setting: for AVLVVMACL the value was 4.15 µM. As to CLLTTSGVSA, the Kd with HLA-A*02:01 [1] stood at 10.4 µM. CLVPAATASL: the IC50 with HLA-A*02:01 [2] turned out to be 2.54 µM.

On to FANSKFTLVA, for which the Kd with HLA-A*02:01 [1] is at least 43.4 µM.

Regarding FLAGHPLTNL, in the experiment with HLA-A*02:01 [2], the IC50 is 0.014 µM. Still for that read-out and setting: for FLARLHAAA the value was 0.048 µM; for FLGGGGAGI, 3.58 µM.

On to FTDNKSCVSL, for which the Kd in the experiment with HLA-A*02:01 [1] amounted to 14.4 µM. On to FTLVAPVSI, for which the IC50 with HLA-A*02:01 [2] turned out to be 0.363 µM. In the case of FTSAVLLLV, the IC50 with HLA-A*02:01 [2] is 0.01 µM. Still for that read-out and setting: for FTSAVLLLVV the value was 0.918 µM; for GLLLLGLWGT, 0.062 µM; for GLMNNAFEWI, 0.175 µM. Turning to GLTFKGPGA, in the experiment with HLA-A*02:01 [1], the Kd is at least 43.4 µM. Same read-out and setting: for GVQGGFVSA the value was at least 43.4 µM. As for IILNGSLLT, the IC50 in the experiment with HLA-A*02:01 [2] turned out to be 4.33 µM.

With IVQENNGAV, the Kd in the experiment with HLA-A*02:01 [1] was at least 28.2 µM.

For the sequence KALETDVPA, in the experiment with HLA-A*02:01 [1], the Kd was at least 43.4 µM.

With KTWADEYLCV, in the experiment with HLA-A*02:01 [2], the IC50 came to 0.444 µM. KVVSLVILA: the IC50 in the experiment with HLA-A*02:01 [2] was found to be 0.409 µM. In the case of LAAVLVVMA, the Kd in the experiment with HLA-A*02:01 [1] was at least 22.8 µM.

For the sequence LLGLWGTAA, the Kd in the experiment with HLA-A*02:01 [1] was 6.26 µM. Consider LLLGLWGTA, for which the IC50 with HLA-A*02:01 [2] was 0.944 µM.

With LLLGLWGTAA, in the experiment with HLA-A*02:01 [2], the IC50 turned out to be 0.241 µM. Still for that read-out and setting: for LLLLGLWGTA the value was 0.888 µM. As for LLTTSGVSA, the Kd with HLA-A*02:01 [1] was at least 28.2 µM. LLTTSGVSAI: the IC50 with HLA-A*02:01 [2] came to 1.11 µM. LLVGYNDSA: the Kd in the experiment with HLA-A*02:01 [1] is at least 28.2 µM. Same read-out and setting: for LLVGYNDSAA the value was at least 28.2 µM. Regarding LMNNAFEWI, in the experiment with HLA-A*02:01 [2], the IC50 was found to be 0.395 µM. The same measure, in the same setting: for LMNNAFEWIV the value was 0.056 µM. As to LTFKGPGAWA, the dissociation constant (Kd) in the experiment with HLA-A*02:01 [1] is at least 43.4 µM. As to LTNLSEQMLV, in the experiment with HLA-A*02:01 [2], the IC50 was 3.19 µM. Regarding LVQAFHSFRA, the Kd with HLA-A*02:01 [1] is 6.92 µM. Same read-out and setting: the value for LVYVNGVVV was 9.07 µM. The same measure, in the same setting: for MACLVPAAT the value was at least 26.8 µM.

As to MALIGDSTV, the Kd in the experiment with HLA-A*02:01 [1] amounted to 17.5 µM. With MMSCSSEAT, the IC50 with HLA-A*02:01 [2] was determined as 1.17 µM. For MTEQTDEAV, in the experiment with HLA-A*02:01 [1], the Kd is at least 43.4 µM.

MTSCVSEQL: the IC50 with HLA-A*02:01 [2] was 0.348 µM. Consider MTYTGGVMT, for which, in the experiment with HLA-A*02:01 [1], the Kd is at least 28.2 µM. Still for that read-out and setting: for NVLLYNRLL the value was 6.03 µM. Consider QLDHGVLLV, for which the IC50 with HLA-A*02:01 [2] was determined as 0.673 µM. Same read-out and setting: for QMDYSNGLFV the value was 0.061 µM. Consider QMSCTDAACI, for which, in the experiment with HLA-A*02:01 [1], the Kd is at least 28.2 µM. Same read-out and setting: for QVHSSLSVV the value was at least 43.4 µM. On to RALSLAAVL, for which, in the experiment with HLA-A*02:01 [2], the IC50 was determined as 3.89 µM. With RIILNGSLL, the Kd with HLA-A*02:01 [1] is at least 43.4 µM. Regarding RLHLWLSDM, the IC50 in the experiment with HLA-A*02:01 [2] was 4.91 µM. Same read-out and setting: the value for RLLSPTTIV was 0.29 µM; that for RVFGLLLLGL was 0.355 µM.

RVFTSAVLL: the IC50 in the experiment with HLA-A*02:01 [2] came to 0.661 µM.

In the case of SIHVTVSNV, the IC50 with HLA-A*02:01 [2] was 3.61 µM. Regarding SLSVVRPMT, in the experiment with HLA-A*02:01 [1], the Kd turned out to be 8.56 µM. As for SLVYVNGVVV, the IC50 with HLA-A*02:01 [2] came out at 2.88 µM. On to SMNATLVQA, for which the IC50 with HLA-A*02:01 [2] amounted to 0.267 µM. Turning to STHCSGPSV, in the experiment with HLA-A*02:01 [1], the Kd was at least 28.2 µM. On the same count and under the same terms, for STSRVPYDI the value was at least 43.4 µM. SVFRENLFL: in the experiment with HLA-A*02:01 [2], the IC50 was 0.059 µM. As to SVPLNQCNWL, in the experiment with HLA-A*02:01 [1], the Kd is at least 28.2 µM.

On to TLLYATVEV, for which, in the experiment with HLA-A*02:01 [2], the IC50 came out at 0.068 µM. As for VAVNGPVAV, the Kd with HLA-A*02:01 [1] is at least 28.2 µM. On the same count and under the same terms, the value for VLLLVVVMM was at least 27.9 µM; that for VLVVMACLV was 7.35 µM. In the case of VMACLVPAA, the IC50 with HLA-A*02:01 [2] came out at 0.01 µM. Still for that read-out and setting: for VMMSCSSEA the value was 0.055 µM.

As for VTLPTGQCL, the Kd with HLA-A*02:01 [1] was at least 28.2 µM.

With VVMACLVPAA, the IC50 in the experiment with HLA-A*02:01 [2] amounted to 0.098 µM.

Turning to WADEYLCVNA, the Kd in the experiment with HLA-A*02:01 [1] was at least 43.4 µM. Still for that read-out and setting: the value for WAFSAIGNV was 16.7 µM. For WIIKNSWTA, in the experiment with HLA-A*02:01 [2], the 50% inhibitory concentration (IC50) came to 0.186 µM. WIVQENNGA: the Kd with HLA-A*02:01 [1] is 12.8 µM. In the case of WLSDCGEAL, in the experiment with HLA-A*02:01 [2], the IC50 came to 0.228 µM.

For the sequence WMTYTGGVMT, in the experiment with HLA-A*02:01 [1], the Kd is at least 28.2 µM. For YATVEVPSL, the Kd with HLA-A*02:01 [1] amounted to 5.5 µM. Take YVNGVVVATV: the IC50 in the experiment with HLA-A*02:01 [2] turned out to be 0.466 µM.
